Test results from patent US7501496 (ROCHE PALO ALTO, dated 2009).

T1: Recombinant soluble human OX40L fused to a Histidine tag (human, UniProt P23510 51-183)
T1 construct: extracellular domain; there it was reduced and LDS-denatured; also called hOX40L-His; hOx40L-His; not shown: Histidine tag
T1 sequence (looked up): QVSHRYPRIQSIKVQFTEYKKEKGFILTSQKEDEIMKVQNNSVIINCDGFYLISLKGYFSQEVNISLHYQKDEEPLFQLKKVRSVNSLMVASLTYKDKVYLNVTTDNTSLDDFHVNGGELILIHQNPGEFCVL

T2: human OX40L expressed on cells (K562-hOX40L cells; HUVEC) (human, UniProt P23510 1-183)
T2 sequence (looked up): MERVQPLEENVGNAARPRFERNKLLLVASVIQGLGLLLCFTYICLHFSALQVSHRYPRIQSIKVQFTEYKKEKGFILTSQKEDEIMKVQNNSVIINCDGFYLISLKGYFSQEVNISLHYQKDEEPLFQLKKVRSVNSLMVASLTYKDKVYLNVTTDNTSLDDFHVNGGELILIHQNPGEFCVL


Assays:
[1] = target: T1, Recombinant soluble human OX40L fused …; experiment: SPR, Biacore 3000; antibody captured via anti-Fcγ on CM5, hOX40L-His as analyte, 1:1 Langmuir fit; native hOX40L-His as analyte in SPR, antibody captured via Anti-hFcg, HBS-P pH 7.4, 25 C
Procedure: (§1) Instrument: Biacore 3000, running and reaction buffer: HBS-P (10 mM HEPES, 150 mM NaCl, 0.005% Tween 20, ph 7.4), 25° C. Injection of analyte was performed at 7 concentrations between 0.78 nM and 100 nM for 3 minutes and washed with HBS-P for 5 minutes. Regeneration of the surface (carboxymethylated dextrane surface, CM) was performed by two injections of 10 mM Glycine pH 2.0 for 1 min each. The chip, assay format and sequence of injections and kinetic data correspond to the description in the following table. Kinetic data were calculated by fitting kinetic data to a 1:1 Langmuir binding model.

[2] = target: T1, Recombinant soluble human OX40L fused …; experiment: SPR competition; hOX40L-His (10 nM) preincubated with antibody (0.78-100 nM), injected over immobilized OX40-hFc; native hOX40L-His (10 nM) preincubated with the antibody in solution, competition for immobilized OX40-hFc
Procedure: Instrument: Biacore 3000, running and reaction buffer: HBS-P (10 mM HEPES, 150 mM NaCl, 0.005% Tween 20, ph 7.4), 25° C. Prior to injection the analyte (10 nM) and competitor (eight concentrations between 0.78 nM and 100 nM) were preincubated for at least 20 min at 22° C. Injection of analyte+/−competitor was performed for 3 minutes and washed with HBS-P for three minutes. Regeneration of the surface was performed by two injections of 10 mM Glycine pH 2.0 for 1 min each. The chip, assay format and sequence of injections and kinetic data correspond to the description in the following table 3.

[3] = target: T2, human OX40L expressed on cells …; experiment: cell-based or functional assay
[4] = target: T1, Recombinant soluble human OX40L fused …; experiment: SPR, Biacore 3000; antibody captured via anti-Fcγ on CM5, hOX40L-His as analyte, 1:1 Langmuir fit
Procedure: as §1

| Kd [1] [nM] | koff [1] [s⁻¹] | kon [1] [M⁻¹ s⁻¹] | IC50 [2] [nM] | IC50, IL-2 release of PHA-activated PBL co-stimulated with K562_OX40L cells [3] [nM] | Kd [4] [nM] | koff [4] [s⁻¹] | kon [4] [M⁻¹ s⁻¹] | Binder |
| --- | --- | --- | --- | --- | --- | --- | --- | --- |
| < 0.015 | < 1e-06 | 68400 | 3 | 10 |  |  |  | Human anti-human OX40L monoclonal antibody LC.005 (antibody, IgG1, V domains shown, also called LC2010-005; hu-Mab<hOX40L>LC.005) VH: QVQLVESGGGVVQPGRSLRLSCAASGFTFSNFGMHWVRQAPGKGLEWVAAIWYDGHDKYYSYYVKGRFTISRDNSKNTLFLQMNSLRAEDTAVYYCARDSSSWYRYFDYWGQGTLVTVSS VL: not shown |
|  |  |  |  |  | 0.399 | 2.5e-05 | 62500 | Human anti-human OX40L monoclonal antibody LC.010 (antibody, IgG1, V domains shown, also called LC2010-010; hu-Mab<hOX40L>LC.010) VH: QVQLVESGGGVVQPGRSLRLSCAASGFTFSNFGMHWVRQAPGKGLEWVAAIWYDGHDKYYAYYVKGRFTISRDNSKNTLFLQMNSLRAEDTAVYYCARDSSSWYRYFDYWGQGTLVTVSS VL: not shown |
|  |  |  |  |  | < 0.014 | 2.09e-07 | 70100 | Human anti-human OX40L monoclonal antibody LC.033 (antibody, V domains shown, also called LC2010-033; hu-Mab<hOX40L>LC.033) VH: QKQLVEFGGGVVQPGRSLRLSCAASGFTFSNYGMHWVRQAPGKGLEWVAVIWNDGSNKYYVDSVKGRFIISRDNSKNTLYLQMNSLRAEDTAVYYCARDRMGIYYYGMDVWGQGTTVTVSS VL: EIVLTQSPATLSLSPGERATLSCRASQGVSRYLAWYQQKPGQAPRLLIYDASNRATGIPARVSGSGPGTDFTLTISSLEPEDFAVDYCQQRSNWQYTFGQGTKLEI |
